Tests used:
[1] = molecular target: T1, human chemokine (C-C motif) receptor 8 (CCR8) (human, UniProt P51685 1-355); assay: flow cytometry blocking, PBMC CCR8+ CD4+ cells; competitor PE-AB11 (its MFI is read)
T1 construct: On human peripheral blood lymphocytes / PBMC (native) or on human CCR8 GFP-transfected Ba/F3 cells; also called hCCR8; human CCR8
Procedure: (§1) For blocking studies, 100 μL of the cell suspension were incubated with 10 μg purified isotype control, AB1, AB2, AB3, AB4, AB5, AB8, AB9, AB10, AB11, AB12, AB13, AB14, AB15, and Commercial ABI antibodies, or isotype control, as blocking agents.
(§2) After incubation with the blocking agent, the cells were incubated with 0.25 μg of the indicated PE-conjugated antibody plus anti-human CD4 APC or anti-human CD3 for another 15 minutes in the dark and then washed 2 times with Cell Staining Buffer, and acquired in a FACSCanto II flow cytometer (BD Biosciences); the data was analyzed using FCS Express (De Novo Software); MFI correspond to the CCR8+ CD4+ lymphocytes or CCR8+ CD3+ lymphocytes.
(§3) Percentage original MFI was calculated by dividing the MFI of samples blocked with AB1, AB2, AB3, AB4, AB5, AB6, AB7, AB8, AB9, AB10, AB11, AB12, AB13, AB14, AB15, and Commercial ABI antibodies, by the MFI of samples blocked with the corresponding isotype control. This value was subtracted from 100 to get a blocking percentage. The formula is shown below: […]

[2] = molecular target: T1, human chemokine (C-C motif) receptor 8 …; assay: flow cytometry blocking, PBMC CCR8+ CD4+ cells; competitor PE-AB14 (its MFI is read)
Procedure: as §1, §2, §3

[3] = molecular target: T1, human chemokine (C-C motif) receptor 8 …; assay: flow cytometry blocking, PBMC CCR8+ CD4+ cells; competitor PE-AB15 (its MFI is read)
Procedure: as §1, §2, §3

[4] = molecular target: T1, human chemokine (C-C motif) receptor 8 …; assay: flow cytometry blocking, PBMC CCR8+ CD4+ cells; competitor PE-AB1 (its MFI is read)
Procedure: as §1, §2, §3

[5] = molecular target: T1, human chemokine (C-C motif) receptor 8 …; assay: flow cytometry blocking, PBMC CCR8+ CD4+ cells; competitor PE-AB5 (its MFI is read)
Procedure: as §1, §2, §3

[6] = molecular target: T1, human chemokine (C-C motif) receptor 8 …; assay: flow cytometry blocking, PBMC CCR8+ CD4+ cells; competitor PE-AB3 (its MFI is read)
Procedure: as §1, §2, §3

[7] = molecular target: T1, human chemokine (C-C motif) receptor 8 …; assay: cell-based or functional assay
[8] = molecular target: T1, human chemokine (C-C motif) receptor 8 …; assay: flow cytometry blocking, PBMC CCR8+ CD4+ cells; competitor PE-AB2 (its MFI is read)
Procedure: as §1, §2, §3

[9] = molecular target: T1, human chemokine (C-C motif) receptor 8 …; assay: flow cytometry blocking, PBMC CCR8+ CD4+ cells; competitor PE-ABII (its MFI is read)
Procedure: as §1, §2, §3

[10] = molecular target: T1, human chemokine (C-C motif) receptor 8 …; assay: flow cytometry blocking, PBMC CCR8+ CD4+ cells; competitor PE-AB6 (its MFI is read)
Procedure: as §1, §2, §3

[11] = molecular target: T1, human chemokine (C-C motif) receptor 8 …; assay: flow cytometry blocking, PBMC CCR8+ CD4+ cells; competitor PE-AB4 (its MFI is read)
Procedure: as §1, §2, §3

[12] = molecular target: T1, human chemokine (C-C motif) receptor 8 …; assay: flow cytometry blocking, PBMC CCR8+ CD4+ cells; competitor PE-AB10 (its MFI is read)
Procedure: as §1, §2, §3

[13] = molecular target: T1, human chemokine (C-C motif) receptor 8 …; assay: flow cytometry blocking, PBMC CCR8+ CD4+ cells; competitor PE-AB13 (its MFI is read)
Procedure: as §1, §2, §3

[14] = molecular target: T1, human chemokine (C-C motif) receptor 8 …; assay: flow cytometry blocking, PBMC CCR8+ CD4+ cells; competitor PE-AB12 (its MFI is read)
Procedure: as §1, §2, §3

T1 sequence (P51685 whole entry): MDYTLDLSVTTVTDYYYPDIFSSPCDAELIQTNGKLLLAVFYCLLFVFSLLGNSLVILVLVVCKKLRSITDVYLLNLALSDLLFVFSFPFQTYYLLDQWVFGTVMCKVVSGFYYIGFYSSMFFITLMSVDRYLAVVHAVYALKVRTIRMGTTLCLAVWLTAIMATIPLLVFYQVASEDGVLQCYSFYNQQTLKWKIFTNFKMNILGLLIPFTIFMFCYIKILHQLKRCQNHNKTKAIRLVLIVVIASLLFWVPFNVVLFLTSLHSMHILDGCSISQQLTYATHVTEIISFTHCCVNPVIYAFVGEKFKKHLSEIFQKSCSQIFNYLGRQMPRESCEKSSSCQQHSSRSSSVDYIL

| % Blocking [1] [%] | MFI [1] | % Blocking [2] [%] | MFI [2] | % Blocking [3] [%] | MFI [3] | % Blocking [4] [%] | MFI [4] | % Blocking [5] [%] | MFI [5] | % Blocking [6] [%] | MFI [6] | % hCCR8-Ba/F3 - THP-1 complexes [7] [%] | % Blocking [8] [%] | MFI [8] | % Blocking [9] [%] | MFI [9] | % Blocking [10] [%] | MFI [10] | % Blocking [11] [%] | also measured | Binder |
| --- | --- | --- | --- | --- | --- | --- | --- | --- | --- | --- | --- | --- | --- | --- | --- | --- | --- | --- | --- | --- | --- |
| 40.4 | 537 | 6.78 | 826 | -56.6 | 1240 | -49.5 | 980 | -27.2 | 953 | -43.3 | 994 | 1.78 | -42.4 | 953 | 27 | 808 | -20.4 | 944 | -40.9 | MFI [11]: 962; % Blocking [12]: -81.3%; MFI [12]: 1830; % Blocking [13]: 33.4%; MFI [13]: 623; % Blocking [14]: 20.8%; MFI [14]: 773 | AB8 (antibody, V domains shown, Hybridoma monoclonal; also called antibody 8; clone 8) VH: AVQLVESGGGLVQPKESLKISCAASGFIFSNAAMYWVRQAPGKGLQWVARIRTKPKNYATYYIDSVKGRFTISRDDSKSMVYLQMDNLKTEDTAMYYCNTMGLTRAYYFDYWGQGVMVTVSS VL: DIQMTQSPSFLSASVGDRVTINCKASQNINRYLNWYQQKLGEAPKLLIYNANSLQTGIPSRFSGSGSGTDFTLTIRSLQPEDVATYFCLQHNSWPWTFGGGTKLELK |
| 37.7 | 562 | -413 | 4550 | -15.9 | 919 | -41.5 | 927 | -35.7 | 1020 | -39.7 | 970 | 1.16 | -54.3 | 1030 | 12.2 | 972 | -30.7 | 1020 | -42.8 | MFI [11]: 975; % Blocking [12]: -36.6%; MFI [12]: 1380; % Blocking [13]: 27.4%; MFI [13]: 680; % Blocking [14]: -0.1%; MFI [14]: 977 | AB13 (antibody, V domains shown, Hybridoma monoclonal; also called antibody 13; clone 13) VH: EVQLVETGGGLVQPKGSLKLSCAASGFTFNAYAMNWVRQAPGKGLEWVARIRTKSNNYATYYADSVKDRFTISRDDSQTMLYLQMNNLKTEDTAMYYCVRDRATVTTGRAMDYWGQGTSVTVSS VL: DIVMTQAAPSLPVTPGESVSISCRSSKSLLHSNGNTYLYWFLQRAGQSPQLLIYRMSNLASGVPDRFSGSGSGTAFTLRISRVEAEDVGVYYCMQHLEYPFTFGSGTKLEIK |
| 20.9 | 713 | 38.4 | 546 | 19.4 | 639 | -51.8 | 995 | -29.4 | 970 | -61.4 | 1120 | 1.07 | -60.8 | 1080 | -0.05 | 1110 | -35.7 | 1060 | -45.6 | MFI [11]: 994; % Blocking [12]: 1.55%; MFI [12]: 992; % Blocking [13]: -3.67%; MFI [13]: 971; % Blocking [14]: 34.1%; MFI [14]: 643 | AB15 (antibody, V domains shown, Hybridoma monoclonal; also called antibody 15; clone 15) VH: EVQLVESGGGLVQPKGSLKLSCAASGFTFNTYAMNWVRQAPGKGLEWVARIRSKSNNYATYYVDSVKDRFTISRDDSQSMLYLQINNLKTEDTAMYYCVRGRELGPYSAMDYWGQGTSVTVSS VL: DIVMTQAAPSVPVTPGESVSISCRSSKSLLHSNGNTYLYWFLQRPGQSPQLLIYRMSNLASGVPDRFSGSGSGTAFTLRISRVEAEDVGLYYCMQHLEYPFTFGGGTKLEIK |
| -7.68 | 971 | 2.39 | 865 | -7.83 | 855 | 13.5 | 567 | 36.7 | 475 | 42.4 | 399 | 0.48 | 26.7 | 491 | 0.77 | 1100 | 45.9 | 424 | 16.2 | MFI [11]: 572; % Blocking [12]: -8.07%; MFI [12]: 1090; % Blocking [13]: 8.25%; MFI [13]: 859; % Blocking [14]: -9.94%; MFI [14]: 1070 | AB2 (antibody, V domains shown, Hybridoma monoclonal; also called antibody 2; clone 2) VH: QVQLKESGPGLVKPSETLSLTCTVSGFSLTSYHISWVRQPPGKGLEWMGVIWGDGSKTYNSALKSRLSISRDTSKSQVFLKMRSLKTEDTATYYCARGGDSGFAYWGQGTLVTVSS VL: DIQMTQSPASLSASLEEIVTITCQASQDIGNWLSWYQQKPGKSPQLLIYGTTNLADGVPSRFSGSRSGTQYSLKISRLQVEDIGIYYCLQAYSVPLTFGSGTKLEIK |
| -11.2 | 1000 | -4.39 | 925 | -6.62 | 845 | 39.7 | 395 | 44.9 | 413 | 47.3 | 366 | 1.51 | 47.1 | 355 | -8.53 | 1200 | 35.7 | 504 | -6.8 | MFI [11]: 729; % Blocking [12]: -7.11%; MFI [12]: 1080; % Blocking [13]: -5.77%; MFI [13]: 990; % Blocking [14]: -17.2%; MFI [14]: 1140 | AB5 (antibody, V domains shown, Hybridoma monoclonal; also called antibody 5; clone 5) VH: QVQLKESGPGLVQPSQTLSLTCTVSGFSLTSYHVSWVRQPPGKGLEWMGVIWTGGSTTYNSLLKSRLSISRDISKSQVFLKMNSLQTEDTATYYCARGGTVVKGGFAYWGQGTLVTVSS VL: DIQMTQSPASLSASLEEIVTITCQASQDIGNRLSWYQQKPGKSPQLLIYGATSLADGVPSRFSGSRSGTQYSLKISRLQVEDIGIYYCLQAYSTPLTFGSGTKLEIK |
